Data on one substance can be found in patent publication US20130266576A1.

In the experiment the target is von Willebrand factor (vWF) (UniProt P04275). Description: solid-phase binding assay, vWF coated on wells, FVIII 0.05-6.4 nM, no antibody, detection with biotinylated 1F5; one-site model.

Chain of B-domain deleted factor VIII (FVIII) (P00451 20-759, stated change not applied): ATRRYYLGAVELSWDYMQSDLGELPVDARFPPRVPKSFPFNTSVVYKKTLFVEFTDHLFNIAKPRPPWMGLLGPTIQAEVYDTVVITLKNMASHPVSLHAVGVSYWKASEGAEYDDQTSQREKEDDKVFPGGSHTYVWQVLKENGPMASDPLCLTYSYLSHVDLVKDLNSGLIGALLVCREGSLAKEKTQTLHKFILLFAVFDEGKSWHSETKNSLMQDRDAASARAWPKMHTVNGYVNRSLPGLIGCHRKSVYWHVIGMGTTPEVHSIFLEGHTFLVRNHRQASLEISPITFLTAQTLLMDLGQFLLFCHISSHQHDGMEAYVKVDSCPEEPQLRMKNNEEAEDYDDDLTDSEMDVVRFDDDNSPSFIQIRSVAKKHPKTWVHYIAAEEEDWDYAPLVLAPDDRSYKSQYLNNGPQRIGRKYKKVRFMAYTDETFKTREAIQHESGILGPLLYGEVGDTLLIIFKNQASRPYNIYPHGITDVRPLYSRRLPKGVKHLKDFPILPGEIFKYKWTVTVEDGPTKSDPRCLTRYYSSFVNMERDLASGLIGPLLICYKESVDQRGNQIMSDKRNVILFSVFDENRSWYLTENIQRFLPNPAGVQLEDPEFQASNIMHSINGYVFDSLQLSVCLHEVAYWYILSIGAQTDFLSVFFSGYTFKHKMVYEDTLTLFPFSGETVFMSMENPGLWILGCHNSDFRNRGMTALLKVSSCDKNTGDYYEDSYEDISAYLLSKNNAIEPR
Chain of B-domain deleted factor VIII (FVIII) (P00451 1668-2351, stated change not applied): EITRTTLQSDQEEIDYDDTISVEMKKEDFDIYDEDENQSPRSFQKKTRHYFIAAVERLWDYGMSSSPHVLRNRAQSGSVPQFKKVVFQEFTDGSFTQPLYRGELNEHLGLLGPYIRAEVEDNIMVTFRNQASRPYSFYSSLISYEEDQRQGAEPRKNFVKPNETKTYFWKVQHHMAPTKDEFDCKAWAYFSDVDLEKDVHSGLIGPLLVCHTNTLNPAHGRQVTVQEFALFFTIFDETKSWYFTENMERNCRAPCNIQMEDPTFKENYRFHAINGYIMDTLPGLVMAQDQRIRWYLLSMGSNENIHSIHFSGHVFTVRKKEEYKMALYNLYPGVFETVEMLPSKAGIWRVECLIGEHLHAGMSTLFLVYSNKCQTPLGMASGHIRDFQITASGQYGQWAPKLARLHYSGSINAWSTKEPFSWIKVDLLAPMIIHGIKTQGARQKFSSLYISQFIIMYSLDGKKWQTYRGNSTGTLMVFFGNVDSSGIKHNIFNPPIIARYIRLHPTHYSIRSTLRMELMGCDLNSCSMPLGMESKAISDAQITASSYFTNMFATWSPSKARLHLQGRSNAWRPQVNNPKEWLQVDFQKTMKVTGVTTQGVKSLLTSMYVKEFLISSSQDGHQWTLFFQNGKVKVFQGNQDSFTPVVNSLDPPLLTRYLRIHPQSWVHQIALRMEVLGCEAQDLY

By Kd is commonly meant the constant that tells how readily two partners part at equilibrium. Read a low Kd as higher affinity. For “B-domain deleted factor VIII (FVIII) (from UniProt P00451 20-759; P00451 1668-2351)”, the Kd was determined as 290 pM.
